# Source: the RNAGym collection of RNA variant scans (doi:10.1093/nar/gkz1192)
# B1: CPEB3 Ribozyme (parent)
# chain: UAACAGGGGGCCACAGCAGAAGCGUUCACGUCGCAGCCCCUGUCAGAUUCUGGUGAAUCUGCGAAUUCUGCUGUAUAUCUC
# Variants of: B1
# Assay: self-cleavage, relative activity (ratio to wild type); higher = more cleavage; in vitro, sequencing
# In short: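 Barcoded CPEB3 ribozyme mutants, produced by rounds of error-prone PCR, self-cleaved while being transcribed with T7 RNA polymerase for 5 hours at 37°C and during a subsequent 15 min DNase I step before EDTA was added. Sequencing of template-switched cDNA on Illumina gave cleaved and total reads, and DNA sequencing assigned barcodes to variants. Each variant's relative activity is its cleaved/total read fraction divided by the unmutated ribozyme's fraction, averaged across three batches. A variant needed a minimum of 5 reads.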
row,Variant,self-cleavage
1,U31C C71U,0.25
2,U31C C79A,0.94
3,U31C C79U,1.1
4,U31C C81G,0.55
5,U31C C81U,1.14
6,U31C G33A,0.21
7,U31C G36A,0.13
8,U31C G36U,0.14
9,U31C G42A,0.35
10,U31C G42U,0.13
11,U31C G46A,0.15
12,U31C G46U,0.23
13,U31C G52A,1.06
14,U31C G52C,1.14
15,U31C G53A,0.91
16,U31C G53U,1.06
17,U31C G55A,0.78
18,U31C G55U,0.76
19,U31C G61C,0.14
20,U31C G63A,0.67
21,U31C G63U,0.8
22,U31C G70A,0.25
23,U31C G70C,0.18
24,U31C G73A,1.26

row,Variant,self-cleavage
1,U31C U41A,0.29
2,U31C U41C,0.82
3,U31C U41G,0.34
4,U31C U43A,1.03
5,U31C U43C,0.49
6,U31C U43G,0.36
7,U31C U48A,0.39
8,U31C U48C,0.37
9,U31C U49A,0.5
10,U31C U49C,0.23
11,U31C U49G,0.3
12,U31C U51A,0.89
13,U31C U51C,0.78
14,U31C U51G,0.89
15,U31C U54A,0.92
16,U31C U54C,0.8
17,U31C U54G,0.68
18,U31C U58A,0.31
19,U31C U58C,0.33
20,U31C U58G,0.39
21,U31C U60A,0.34
22,U31C U60C,0.29
23,U31C U60G,0.15
24,U31C U66A,0.28

row,Variant,self-cleavage
1,U31C U66C,0.27
2,U31C U66G,0.35
3,U31C U67A,0.34
4,U31C U67C,0.26
5,U31C U69A,0.37
6,U31C U69C,0.31
7,U31C U69G,0.41
8,U31C U72A,0.5
9,U31C U72C,0.97
10,U31C U72G,0.46
11,U31C U74A,1.18
12,U31C U74C,1.18
13,U31C U74G,1.23
14,U31C U76A,0.77
15,U31C U76C,0.88
16,U31C U76G,0.8
17,U31C U78A,0.86
18,U31C U78C,0.87
19,U31C U78G,0.84
20,U31C U80A,1.01
21,U31C U80C,0.96
22,U31C U80G,1.13
23,U31G,0.5
24,U31G A35G,1.1

row,Variant,self-cleavage
1,U31G A35U,0.36
2,U31G A45C,0.33
3,U31G A45G,0.37
4,U31G A45U,0.57
5,U31G A56G,0.45
6,U31G A57G,0.48
7,U31G A64G,0.46
8,U31G A65G,0.22
9,U31G A75G,0.54
10,U31G A75U,0.46
11,U31G A77G,0.59
12,U31G C32A,0.28
13,U31G C32U,0.22
14,U31G C34A,0.14
15,U31G C34U,0.18
16,U31G C39U,0.34
17,U31G C40G,0.12
18,U31G C44U,0.16
19,U31G C62G,0.15
20,U31G C68A,0.31
21,U31G C79A,0.56
22,U31G G33A,0.57
23,U31G G36U,0.15
24,U31G G52A,0.74

row,Variant,self-cleavage
1,U31G G53A,0.18
2,U31G G55A,0.21
3,U31G U41A,0.29
4,U31G U41C,0.33
5,U31G U43C,0.36
6,U31G U49A,0.34
7,U31G U49C,0.26
8,U31G U51C,0.52
9,U31G U54A,0.62
10,U31G U54C,0.63
11,U31G U58A,0.44
12,U31G U58C,0.4
13,U31G U60A,0.32
14,U31G U60C,0.31
15,U31G U66C,0.37
16,U31G U67A,0.25
17,U31G U67C,0.3
18,U31G U69A,0.22
19,U31G U69C,0.18
20,U31G U72A,0.5
21,U31G U72C,0.82
22,U31G U72G,0.92
23,U31G U74A,1.02
24,U31G U74C,0.96

row,Variant,self-cleavage
1,U31G U74G,0.99
2,U31G U80A,0.59
3,U31G U80C,0.72
4,C32A,0.29
5,C32A A35G,0.87
6,C32A A45G,0.32
7,C32A A45U,0.35
8,C32A A47G,0.14
9,C32A A56G,0.15
10,C32A A57G,0.24
11,C32A A57U,0.2
12,C32A A64G,0.1
13,C32A A75C,0.56
14,C32A A75U,0.16
15,C32A A77U,0.33
16,C32A C34G,0.44
17,C32A C38A,0.25
18,C32A C38G,0.18
19,C32A C40A,0.11
20,C32A C40G,0.43
21,C32A C40U,0.2
22,C32A C59A,0.15
23,C32A C62G,0.13
24,C32A C68U,0.22

row,Variant,self-cleavage
1,C32A G46A,0.11
2,C32A G52A,0.29
3,C32A G52C,0.1
4,C32A G52U,0.13
5,C32A G55A,0.5
6,C32A G61A,0.19
7,C32A G63A,0.4
8,C32A G70U,0.12
9,C32A G73A,0.49
10,C32A G73C,0.17
11,C32A U41A,0.27
12,C32A U41C,0.36
13,C32A U43A,0.5
14,C32A U43C,0.35
15,C32A U48C,0.22
16,C32A U48G,0.24
17,C32A U49A,0.11
18,C32A U49C,0.15
19,C32A U51A,0.24
20,C32A U51C,0.29
21,C32A U51G,0.31
22,C32A U54A,0.29
23,C32A U54C,0.32
